Reference: PMC9068813, “Enhancer RNAs stimulate Pol II pause release by harnessing multivalent interactions to NELF”

How the values were obtained:
Settings in all cases: protein: recombinant; tags: His-tag (Ni-NTA purified); copies: 1;1;1;1
NELF complex WT [1] = target: T1, NELF complex WT (UniProt Q9H3P2;Q8WX92;Q8IXH7;P18615 1-528;1-628;1-590;1-380); test: EMSA (NELF release from PEC); DSIF also released at high RNA; 20 mM Na-HEPES pH 7.4, 100 mM NaCl, 25 mM KCl, 3 mM MgCl2, 2 mM DTT; assembly 30 °C, eRNA incubation 15-20 min at room temperature; 3.5% native PAGE 0.5x TBE at 4 °C; PEC about 0.1 µM NELF 0.15 µM
T1 sequence (Q9H3P2 whole entry, chain 1 of 4): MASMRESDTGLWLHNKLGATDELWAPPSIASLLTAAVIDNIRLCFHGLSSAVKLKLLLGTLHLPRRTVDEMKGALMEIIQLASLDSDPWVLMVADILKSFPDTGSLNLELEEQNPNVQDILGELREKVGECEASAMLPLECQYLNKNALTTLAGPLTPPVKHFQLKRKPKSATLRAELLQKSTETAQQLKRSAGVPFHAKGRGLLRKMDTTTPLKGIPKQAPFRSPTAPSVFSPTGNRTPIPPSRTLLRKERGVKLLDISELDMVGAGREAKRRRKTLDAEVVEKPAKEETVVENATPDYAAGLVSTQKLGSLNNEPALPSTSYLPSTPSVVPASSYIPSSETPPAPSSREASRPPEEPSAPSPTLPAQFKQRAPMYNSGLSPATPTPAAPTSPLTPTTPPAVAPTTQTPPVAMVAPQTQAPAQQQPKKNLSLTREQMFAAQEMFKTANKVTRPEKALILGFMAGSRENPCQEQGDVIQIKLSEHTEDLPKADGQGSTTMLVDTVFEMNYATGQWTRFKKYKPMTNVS
T1 sequence (Q8WX92 other isoform, or with tags, fused parts or gaps, chain 2 of 4): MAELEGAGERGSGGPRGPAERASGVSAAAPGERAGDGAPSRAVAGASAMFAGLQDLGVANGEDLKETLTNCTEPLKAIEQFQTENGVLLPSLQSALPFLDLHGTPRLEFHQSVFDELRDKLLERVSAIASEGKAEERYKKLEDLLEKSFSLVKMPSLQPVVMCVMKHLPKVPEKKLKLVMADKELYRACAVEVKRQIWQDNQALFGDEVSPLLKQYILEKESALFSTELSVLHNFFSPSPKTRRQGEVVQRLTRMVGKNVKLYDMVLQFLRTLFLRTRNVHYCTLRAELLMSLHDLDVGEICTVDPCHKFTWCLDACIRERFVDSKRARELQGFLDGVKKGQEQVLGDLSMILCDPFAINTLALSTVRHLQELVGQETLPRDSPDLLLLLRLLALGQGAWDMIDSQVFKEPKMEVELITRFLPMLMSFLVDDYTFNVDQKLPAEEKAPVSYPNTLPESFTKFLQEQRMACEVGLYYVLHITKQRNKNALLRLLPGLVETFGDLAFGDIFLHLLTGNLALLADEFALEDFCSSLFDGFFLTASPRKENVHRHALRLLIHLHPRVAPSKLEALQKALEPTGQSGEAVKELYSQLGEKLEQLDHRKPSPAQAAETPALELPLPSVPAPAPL
T1 sequence (Q8IXH7 whole entry, chain 3 of 4): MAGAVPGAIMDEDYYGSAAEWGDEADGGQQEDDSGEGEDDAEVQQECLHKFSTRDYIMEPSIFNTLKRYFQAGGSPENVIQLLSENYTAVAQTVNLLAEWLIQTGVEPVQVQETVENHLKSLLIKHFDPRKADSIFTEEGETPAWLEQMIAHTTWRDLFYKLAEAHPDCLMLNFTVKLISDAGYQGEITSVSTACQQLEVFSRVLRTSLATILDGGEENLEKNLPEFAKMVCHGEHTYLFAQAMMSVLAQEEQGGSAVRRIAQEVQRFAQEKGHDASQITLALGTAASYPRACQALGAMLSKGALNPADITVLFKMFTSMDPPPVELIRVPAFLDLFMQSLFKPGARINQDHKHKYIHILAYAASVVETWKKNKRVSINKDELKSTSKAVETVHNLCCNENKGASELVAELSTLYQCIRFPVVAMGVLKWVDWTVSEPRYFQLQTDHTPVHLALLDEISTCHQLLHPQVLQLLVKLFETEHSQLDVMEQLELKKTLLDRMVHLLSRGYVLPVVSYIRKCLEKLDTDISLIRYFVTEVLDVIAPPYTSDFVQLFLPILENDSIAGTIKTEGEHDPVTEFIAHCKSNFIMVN
T1 sequence (P18615 whole entry, chain 4 of 4): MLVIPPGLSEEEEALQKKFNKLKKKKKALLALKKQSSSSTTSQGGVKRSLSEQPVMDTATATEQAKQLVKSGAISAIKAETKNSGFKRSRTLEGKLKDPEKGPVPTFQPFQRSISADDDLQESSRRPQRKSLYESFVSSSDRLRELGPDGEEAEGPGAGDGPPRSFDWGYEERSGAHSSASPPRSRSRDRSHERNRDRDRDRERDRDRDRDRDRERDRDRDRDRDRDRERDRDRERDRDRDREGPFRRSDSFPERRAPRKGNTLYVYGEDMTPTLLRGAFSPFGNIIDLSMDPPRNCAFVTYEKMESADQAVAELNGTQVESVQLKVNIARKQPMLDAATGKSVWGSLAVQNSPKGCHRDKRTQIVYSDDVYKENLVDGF

NELF complex WT [2] = target: T1, NELF complex WT; test: EMSA (NELF release from PEC); up to 2.4 µM; 20 mM Na-HEPES pH 7.4, 100 mM NaCl, 25 mM KCl, 3 mM MgCl2, 2 mM DTT; assembly 30 °C, eRNA incubation 15-20 min at room temperature; 3.5% native PAGE 0.5x TBE at 4 °C; PEC about 0.1 µM NELF 0.15 µM
NELF complex WT [3] = target: T1, NELF complex WT; test: EMSA (NELF release from PEC); apparent Kd; NELF in PEC on N1; 20 mM Na-HEPES pH 7.4, 100 mM NaCl, 25 mM KCl, 3 mM MgCl2, 2 mM DTT; assembly 30 °C, eRNA incubation 15-20 min at room temperature; 3.5% native PAGE 0.5x TBE at 4 °C; PEC about 0.1 µM NELF 0.15 µM
NELF complex WT [4] = target: T1, NELF complex WT; test: size-exclusion chromatography; UV crosslinking-MS (365 nm); isolated NELF; 20 mM Na-HEPES pH 7.4, 100 mM NaCl, 25 mM KCl, 3 mM MgCl2, 2 mM DTT; assembly 30 °C, eRNA incubation 15-20 min at room temperature; 3.5% native PAGE 0.5x TBE at 4 °C; PEC about 0.1 µM NELF 0.15 µM
NELF complex WT [5] = target: T1, NELF complex WT; test: EMSA (NELF release from PEC); no DSIF release at high RNA; 20 mM Na-HEPES pH 7.4, 100 mM NaCl, 25 mM KCl, 3 mM MgCl2, 2 mM DTT; assembly 30 °C, eRNA incubation 15-20 min at room temperature; 3.5% native PAGE 0.5x TBE at 4 °C; PEC about 0.1 µM NELF 0.15 µM
NELF complex WT [6] = target: T1, NELF complex WT; test: EMSA (NELF release from PEC); release at about equimolar eRNA; 20 mM Na-HEPES pH 7.4, 100 mM NaCl, 25 mM KCl, 3 mM MgCl2, 2 mM DTT; assembly 30 °C, eRNA incubation 15-20 min at room temperature; 3.5% native PAGE 0.5x TBE at 4 °C; PEC about 0.1 µM NELF 0.15 µM
NELF complex WT [7] = target: T1, NELF complex WT; test: EMSA (NELF release from PEC); 18-fold molar excess; 20 mM Na-HEPES pH 7.4, 100 mM NaCl, 25 mM KCl, 3 mM MgCl2, 2 mM DTT; assembly 30 °C, eRNA incubation 15-20 min at room temperature; 3.5% native PAGE 0.5x TBE at 4 °C; PEC about 0.1 µM NELF 0.15 µM
NELF complex WT [8] = target: T1, NELF complex WT; test: EMSA (NELF release from PEC); 20 mM Na-HEPES pH 7.4, 100 mM NaCl, 25 mM KCl, 3 mM MgCl2, 2 mM DTT; assembly 30 °C, eRNA incubation 15-20 min at room temperature; 3.5% native PAGE 0.5x TBE at 4 °C; PEC about 0.1 µM NELF 0.15 µM

B1: poly(GU)40, 80 nt (ssRNA)
RNA: GUGUGUGUGUGUGUGUGUGUGUGUGUGUGUGUGUGUGUGUGUGUGUGUGUGUGUGUGUGUGUGUGUGUGUGUGUGUGUGU
B1: binds (NELF complex WT [1]).

B2: poly(U) (ssRNA)
RNA: UUUUUUUUUUUUUUUUUUUUUUUUUUUUUUUUUUUUUUUUUUUUUUUUUUUUUUUUUUUUUUUUUUUUUUUUUUUUUUUU
B2: no binding (NELF complex WT [2]).

B3: poly(UA) (ssRNA)
RNA: UAUAUAUAUAUAUAUAUAUAUAUAUAUAUAUAUAUAUAUAUAUAUAUAUAUAUAUAUAUAUAUAUAUAUAUAUAUAUAUAUAUAUAUAUAUAUAUA
B3: no binding (NELF complex WT [2]).

B4: poly(GA)48, 96 nt (ssRNA)
RNA: GAGAGAGAGAGAGAGAGAGAGAGAGAGAGAGAGAGAGAGAGAGAGAGAGAGAGAGAGAGAGAGAGAGAGAGAGAGAGAGAGAGAGAGAGAGAGAGA
B4: binds (NELF complex WT [1]).

B5: poly(CU) (ssRNA)
RNA: CUCUCUCUCUCUCUCUCUCUCUCUCUCUCUCUCUCUCUCUCUCUCUCUCUCUCUCUCUCUCUCUCUCUCUCUCUCUCUCU
B5: no binding (NELF complex WT [2]).

B6: Nr4a1-(a) eRNA 1-100 (structured_RNA)
RNA: GCGGUGAGAGUGAUUUUGUAACUCUAAAGUUACAGAGGGUUUUGUUGUGUUUUUAAUCAAGAGCCCUGGUUUUGAUUUGUGGGUAAUCUUUCUUUAAACC
With B6 the Kd (NELF complex WT [3]) was 140 nM.

B7: Nr4a1-(a) eRNA 1-100, 4SU (structured_RNA)
RNA: B6 RNA
modifications: 4-thiouridine, 40-80% of U
B7: binds (NELF complex WT [4]).

B8: poly(G2A6), 96 nt (ssRNA)
RNA: GGAAAAAAGGAAAAAAGGAAAAAAGGAAAAAAGGAAAAAAGGAAAAAAGGAAAAAAGGAAAAAAGGAAAAAAGGAAAAAAGGAAAAAAGGAAAAAA
B8: binds (NELF complex WT [5]).

B9: Arc eRNA 1-200 (structured_RNA)
RNA: AAAACACAGCCGCCAGGGUGGGGGUGGCAGCCUUGAACGCCACCCUCUAACUGGCAUGGGCAUCUGAACUCUCAGCUCUGGGGGUGUCUCAUCGGCCAGCUGGCAGUAGCCCCCCCAACCCCACCCCUGAUGGAGAACUGCUCCUGUAUGAUCCAGCCCAGUGGGCGCACAGGGAGUUGGUAGGUGGGCACUCAGACUGG
B9: binds (NELF complex WT [6]).

B10: Arc eRNA 1-200, 4SU (structured_RNA)
RNA: B9 RNA
modifications: 4-thiouridine, 40-80% of U
B10: binds (NELF complex WT [4]).

B11: poly(A) (ssRNA)
RNA: AAAAAAAAAAAAAAAAAAAAAAAAAAAAAAAAAAAAAAAAAAAAAAAAAAAAAAAAAAAAAAAAAAAAAAAAAAAAAAAA
B11: no binding (NELF complex WT [2]).

AAAACACAGCCGCCAGGGUGGGGGUGGCAGCCUUGAACGCCACCCUCUAA (structured_RNA) [Arc eRNA 1-50]: no binding (NELF complex WT [7]).

With GCGGUGAGAGUGAUUUUGUAACUCUAAAGUUACAGAGGGUUUUGUUGUGU (ssRNA) [Nr4a1-(a) eRNA 1-50] the Kd (NELF complex WT [3]) was 9700 nM.

B12: poly(G2A), 96 nt (ssRNA)
RNA: GGAGGAGGAGGAGGAGGAGGAGGAGGAGGAGGAGGAGGAGGAGGAGGAGGAGGAGGAGGAGGAGGAGGAGGAGGAGGAGGAGGAGGAGGAGGAGGA
B12: binds (NELF complex WT [8]).

AGUAGGGGCAUGGCUCGCCCGAGGCUCGGUGCUGCCCCGCCGCCCGCCGC (structured_RNA) [Nr4a1-(b) eRNA 1-50]: no binding (NELF complex WT [7]).

B13: Arc eRNA 96-200 (structured_RNA)
RNA: CCAGCUGGCAGUAGCCCCCCCAACCCCACCCCUGAUGGAGAACUGCUCCUGUAUGAUCCAGCCCAGUGGGCGCACAGGGAGUUGGUAGGUGGGCACUCAGACUGG
B13: binds (NELF complex WT [8]).

B14: Nr4a1-(b) eRNA 1-100 (structured_RNA)
RNA: AGUAGGGGCAUGGCUCGCCCGAGGCUCGGUGCUGCCCCGCCGCCCGCCGCGUUCCUUCCGGCUUGGUGUUCCGGUGGCGGGACCAGGGAAGGGAAGCUCG
For B14, the Kd (NELF complex WT [3]) was 2020 nM.

B15: poly(CA) (ssRNA)
RNA: CACACACACACACACACACACACACACACACACACACACACACACACACACACACACACACACACACACACACACACACACACACACACACACACA
B15: no binding (NELF complex WT [2]).

B16: Nr4a1-(a) eRNA 1-200 (structured_RNA)
RNA: GCGGUGAGAGUGAUUUUGUAACUCUAAAGUUACAGAGGGUUUUGUUGUGUUUUUAAUCAAGAGCCCUGGUUUUGAUUUGUGGGUAAUCUUUCUUUAAACCUCGCCCAUUUCCGGCCUGGUGACCUGGGCCACUUUCUCAUGUUGACCCAGAUGAUCCUCAGUAGCAAGAACAAAAGGACAACAGAUGUGGAAACACUCAA
B16: binds (NELF complex WT [6]).

B17: Nr4a1-(a) eRNA 1-200, 4SU (structured_RNA)
RNA: B16 RNA
modifications: 4-thiouridine, <60% of U
B17: binds (NELF complex WT [4]).

B18: Nr4a1-(b) eRNA 1-200 (structured_RNA)
RNA: AGUAGGGGCAUGGCUCGCCCGAGGCUCGGUGCUGCCCCGCCGCCCGCCGCGUUCCUUCCGGCUUGGUGUUCCGGUGGCGGGACCAGGGAAGGGAAGCUCGGGCCAAAUCCGGUCUCGGGCGAGGUGACAGAAAUUUGGAAUCUGACACCGGAGGAUGGCUGAGCUCCGGCUCCUCUGGGAGUGCAAUUACGGACUUCGCA
B18: binds (NELF complex WT [6]).
